From patent US20030206891A1, “Rapamycin-based biological regulation” (ARIAD Gene Therapeutics, Inc., priority 1995, published 2003)

Tests used:
[1] = target: His6-flag-FKBP protein alone (ethanol, no drug) (human); assay: phage display affinity enrichment: 1 µM His6-flag-FKBP with ethanol alone, Ni-NTA agarose capture, acid elution
[2] = target: His6-flag-FKBP protein with FK506 (human); assay: phage display affinity enrichment: 1 µM His6-flag-FKBP plus FK506, Ni-NTA agarose capture, acid elution
Chain of His6-flag-FKBP protein with FK506 (human) (chain, as listed by the source limits assumed): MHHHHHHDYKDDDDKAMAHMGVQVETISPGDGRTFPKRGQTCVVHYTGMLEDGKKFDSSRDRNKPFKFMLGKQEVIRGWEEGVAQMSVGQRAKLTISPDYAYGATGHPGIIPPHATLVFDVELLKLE

[3] = target: His6-flag-FKBP protein with rapamycin (human); assay: phage display affinity enrichment: FRAP phagemids mixed with pBC control phagemids, 1 µM His6-flag-FKBP plus rapamycin, Ni-NTA agarose capture, acid elution
Chain of His6-flag-FKBP protein with rapamycin (human) (chain, as listed by the source limits assumed): as above

[4] = target: 1FRB-p65(361-550) (human) (UniProt P42345); assay: cell-based or functional assay

Chain of His6-flag-FKBP protein alone (ethanol, no drug) (human) (chain, as listed by the source limits assumed): as above

Substance | fold enrichment of FRAP phage compared to the starting mixture (carb/chlor cfu ratio) [1] | fold enrichment of FRAP phage compared to the starting mixture (carb/chlor cfu ratio) [2] | fold enrichment of FRAP phage compared to the starting mixture (carb/chlor cfu ratio) [3] | SEAP activity of the stable clone at 1100 nM rapamycin (arbitrary fluorescence units) [4] | SEAP activity of the stable clone, no rapamycin (mock transfected cells 47 units) (arbitrary fluorescence units) [4] | SEAP secretion, enhancement with rapamycin over background [4] | SEAP secretion, transiently transfected HT1080 cells: lowest rapamycin concentration with detectable signal [4] | SEAP secretion, transiently transfected HT1080 cells: rapamycin concentration of the peak [4]
phagemids displaying FRAP (amino acids 2015-2114) (from UniProt P42345 2015-2114; P03661 216-424) | 1.5 fold | 2.4 fold | 271 fold |  |  |  |  | 
ZFHD1-3FKBP (from UniProt P62942 1-107; P62942 1-107; P62942 1-107) |  |  |  | > 90000 | 54 | > 1000 fold | 0.5 nM | 5 nM
